Measurements: the supplement of paper PMC7125110
± gives the standard error. For part of these data: Fewer inactive variants are shown than the library holds.

B1: glmS ribozyme (parent)
chain: AUAAAAGCGCCAGAACUACAGAAAUGUAGUUGACGAGGAGGAGGUUUAUCGAAUUUUCGGCGGAUGCCUCCAAA

Experiments:
Details in all cases: with glucosamine-6-phosphate
glucosamine-6-phosphate [1] = variants of: B1; assay: kcat; higher = faster cleavage; RNA array
Method in brief: (§1)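 E. coli RNA polymerase transcribed barcoded ribozyme variants in situ on sequenced MiSeq chips, which were tracked via a hybridised Cy3 probe at 37 °C. Tiles were imaged over ~14 h after glucosamine-6-phosphate (40 μM to 10 mM) in HEPES/KCl/Mg(OAc)2 buffer was flowed in. Normalised per-tile medians were fit to one- or two-exponential decays for kobs, and kcat and KM came from weighted Michaelis–Menten fits.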

glucosamine-6-phosphate [2] = variants of: B1; assay: KM; higher = weaker cofactor use; RNA array
Method in brief: as §1

glucosamine-6-phosphate [3] = variants of: B1; assay: self-cleavage kobs at 10000 uM GlcN6P; higher = faster cleavage; RNA array
Method in brief: as §1

glucosamine-6-phosphate [4] = variants of: B1; assay: self-cleavage kobs at 40 uM GlcN6P; higher = faster cleavage; RNA array
Method in brief: as §1

glucosamine-6-phosphate [5] = variants of: B1; assay: self-cleavage kobs at 160 uM GlcN6P; higher = faster cleavage; RNA array
Method in brief: as §1

glucosamine-6-phosphate [6] = variants of: B1; assay: self-cleavage kobs at 640 uM GlcN6P; higher = faster cleavage; RNA array
Method in brief: as §1

glucosamine-6-phosphate [7] = variants of: B1; assay: self-cleavage kobs at 2500 uM GlcN6P; higher = faster cleavage; RNA array
Method in brief: as §1

Variant	kcat (glucosamine-6-phosphate [1]) [s⁻¹]	KM (glucosamine-6-phosphate [2]) [µM]	self-cleavage kobs at 10000 uM GlcN6P (glucosamine-6-phosphate [3]) [s⁻¹]	self-cleavage kobs at 40 uM GlcN6P (glucosamine-6-phosphate [4]) [s⁻¹]	self-cleavage kobs at 160 uM GlcN6P (glucosamine-6-phosphate [5]) [s⁻¹]	self-cleavage kobs at 640 uM GlcN6P (glucosamine-6-phosphate [6]) [s⁻¹]	self-cleavage kobs at 2500 uM GlcN6P (glucosamine-6-phosphate [7]) [s⁻¹]
G43A U56G	4.8e-05 ± 2.6e-07	3400 ± 58	3.58e-05 ± 9e-06				
G41U	0.00376 ± 0.0013			0.000171 ± 1.9e-05	0.000391 ± 6.3e-05	0.00102 ± 9.3e-05	0.00263 ± 0.00015
G41A C71A	0.000272 ± 3.8e-05	645 ± 210	0.000248 ± 2.8e-05	2.7e-05 ± 8.9e-06	5.23e-05 ± 1.1e-05	0.000125 ± 1.7e-05	0.000308 ± 5.6e-05
G41A C71U	0.000308 ± 7.8e-05	697 ± 340	0.00026 ± 3e-05	3e-05 ± 6.9e-06	5.5e-05 ± 7.2e-06	0.000132 ± 1.5e-05	0.000414 ± 5e-05
G43A C67G	0.00156 ± 0.00014	2110 ± 290	0.00126 ± 0.00013	2.87e-05 ± 6.8e-06	0.000114 ± 1.3e-05	0.000321 ± 5.4e-05	0.000994 ± 0.00015
G41C U45G G66C	4.62e-05 ± 1e-05		2.84e-05 ± 1.2e-05				
A42G U46A	0.00476 ± 0.00084	1200 ± 320	0.00455 ± 0.00072	0.000149 ± 2.5e-05	0.000896 ± 0.00031	0.00178 ± 0.00057	
G41C U47G	0.000713 ± 0.00028		0.000117 ± 2.8e-05				3.37e-05 ± 1.6e-05
A42C U69C	0.000251 ± 7e-05		0.000346 ± 0.00013			0.000126 ± 2.7e-05	0.000165 ± 6.2e-05
A42G C50U	0.000135 ± 1.2e-05	5810 ± 1200	8.57e-05 ± 1.3e-05				3.96e-05 ± 1.9e-05
A42G C50A	4.52e-05 ± 2.6e-06	7070 ± 920					
G41U U65A	0.000223 ± 4.3e-05	1090 ± 470	0.000183 ± 2e-05			8.03e-05 ± 8.5e-06	0.000238 ± 3.1e-05
G41C U45A	0.000121 ± 5.5e-06	1240 ± 160	0.000108 ± 1.1e-05			4.19e-05 ± 7.6e-06	
G41C A52U	1.27e-05 ± 7.6e-07			< 1e-05	< 1e-05		
G41C A52G	1.14e-05 ± 2.5e-06						
G41A U45C	0.0002 ± 3.8e-05	303 ± 140	0.000372 ± 0.00017		6.67e-05 ± 1.8e-05	0.000158 ± 3.6e-05	0.000154 ± 3.9e-05
G41A U54G	0.000873 ± 0.00013	336 ± 90	0.000661 ± 0.00021	9.13e-05 ± 1.9e-05		0.00057 ± 0.00021	0.000898 ± 0.00016
